What was measured:
[1] = biological target: human polyclonal IgG (Gammanorm) (human); experiment: SPR (Biacore), retained IgG binding capacity after 100 NaOH cycles against reference Protein L
[2] = biological target: human polyclonal IgG (Gammanorm) (human); experiment: SPR (Biacore), ligand amine-coupled to CM5 chip, 1 mg/ml IgG flowed; IgG binding signal left after 100 cycles of 100 mM NaOH, 10 min
[3] = biological target: human polyclonal IgG (Gammanorm) (human); experiment: SPR (Biacore), retained IgG binding capacity after 96 NaOH cycles against reference Protein L
[4] = biological target: human polyclonal IgG (Gammanorm) (human); experiment: SPR (Biacore), ligand amine-coupled to CM5 chip, 1 mg/ml IgG flowed; IgG binding signal left after 96 cycles of 100 mM NaOH, 10 min
[5] = biological target: Purified Dab prepared from heat-treated E. coli supernatant; experiment: column chromatography, ligand coupled to agarose beads at 8.8 mg/ml, 1 mg/ml Dab feed, residence time 4 min
[6] = biological target: Purified Fab prepared from a papain-digested IgG mAb; experiment: column chromatography, ligand coupled to agarose beads at 8.8 mg/ml, 1 mg/ml Fab feed, residence time 4 min
[7] = biological target: human polyclonal IgG (Gammanorm) (human); experiment: SPR (Biacore), retained IgG binding capacity after 96 NaOH cycles against reference Domain 3
[8] = biological target: human polyclonal IgG (Gammanorm) (human); experiment: SPR (Biacore), retained IgG binding capacity after 96 NaOH cycles against reference Domain 3 (second series)
[9] = biological target: human polyclonal IgG (Gammanorm) (human); experiment: SPR (Biacore), ligand amine-coupled to CM5 chip, 1 mg/ml IgG flowed; IgG binding signal left after 96 cycles of 100 mM NaOH, 10 min (second series, with the Q19 mutants)
[10] = biological target: Purified Dab prepared from heat-treated E. coli supernatant; experiment: column chromatography, ligand coupled to agarose beads at 9.5 mg/ml, 1 mg/ml Dab feed, residence time 4 min
[11] = biological target: Purified Fab prepared from a papain-digested IgG mAb; experiment: column chromatography, ligand coupled to agarose beads at 9.5 mg/ml, 1 mg/ml Fab feed, residence time 4 min
[12] = biological target: Purified Dab prepared from heat-treated E. coli supernatant; experiment: column chromatography, ligand coupled to agarose beads at 11.0 mg/ml, 1 mg/ml Dab feed, residence time 4 min
[13] = biological target: Purified Fab prepared from a papain-digested IgG mAb; experiment: column chromatography, ligand coupled to agarose beads at 11.0 mg/ml, 1 mg/ml Fab feed, residence time 4 min

Binder | Sample/ref. ratio [1] | Retained capacity after 100 cycles (%) [2] [%] | Retained capacity after 96 cycles (%) [4] [%] | Sample/ref. ratio [7] | further results
D3(N10Q, N45A, N60Q)4-cys (designed binder) PKEEVTIKAQLIYADGKTQTAEFKGTFEEATAEAYRYADLLAKEAGKYTVDVADKGYTLQIKFAGKEKTPEEPKEEVTIKAQLIYADGKTQTAEFKGTFEEATAEAYRYADLLAKEAGKYTVDVADKGYTLQIKFAGKEKTPEEPKEEVTIKAQLIYADGKTQTAEFKGTFEEATAEAYRYADLLAKEAGKYTVDVADKGYTLQIKFAGKEKTPEEPKEEVTIKAQLIYADGKTQTAEFKGTFEEATAEAYRYADLLAKEAGKYTVDVADKGYTLQIKFAGKEKTPEEC | 2.35 | 54 |  |  | 
Domain 3 tetramer (designed binder) PKEEVTIKANLIYADGKTQTAEFKGTFEEATAEAYRYADLLAKENGKYTVDVADKGYTLNIKFAGKEKTPEEPKEEVTIKANLIYADGKTQTAEFKGTFEEATAEAYRYADLLAKENGKYTVDVADKGYTLNIKFAGKEKTPEEPKEEVTIKANLIYADGKTQTAEFKGTFEEATAEAYRYADLLAKENGKYTVDVADKGYTLNIKFAGKEKTPEEPKEEVTIKANLIYADGKTQTAEFKGTFEEATAEAYRYADLLAKENGKYTVDVADKGYTLNIKFAGKEKTPEE |  |  | 38 |  | Sample/ref. ratio [3]: 1.36
Protein L (protein) AIHNRAKEETPETPETDSEEEVTIKANLIFANGSTQTAEFKGTFEKATSEAYAYADTLKKDNGEYTVDVADKGYTLNIKFAGKEKTPEEPKEEVTIKANLIYADGKTQTAEFKGTFEEATAEAYRYADALKKDNGEYTVDVADKGYTLNIKFAGKEKTPEEPKEEVTIKANLIYADGKTQTAEFKGTFEEATAEAYRYADLLAKENGKYTVDVADKGYTLNIKFAGKEKTPEEPKEEVTIKANLIYADGKTQTAEFKGTFAEATAEAYRYADLLAKENGKYTADLEDGGYTINIRFAGKKVDEKPEE | 1 | 23 | 28 |  | Sample/ref. ratio [3]: 1
D3(N10Q, N45A, N60Q)4 (designed binder) PKEEVTIKAQLIYADGKTQTAEFKGTFEEATAEAYRYADLLAKEAGKYTVDVADKGYTLQIKFAGKEKTPEEPKEEVTIKAQLIYADGKTQTAEFKGTFEEATAEAYRYADLLAKEAGKYTVDVADKGYTLQIKFAGKEKTPEEPKEEVTIKAQLIYADGKTQTAEFKGTFEEATAEAYRYADLLAKEAGKYTVDVADKGYTLQIKFAGKEKTPEEPKEEVTIKAQLIYADGKTQTAEFKGTFEEATAEAYRYADLLAKEAGKYTVDVADKGYTLQIKFAGKEKTPEE | 2.61 | 60 |  |  | QB10 Dab (dynamic binding capacity at 10% breakthrough) [5]: 15.9 mg/mL; QB10 Fab (dynamic binding capacity at 10% breakthrough) [6]: 19.3 mg/mL
D3(N45A)1 (designed binder) PKEEVTIKANLIYADGKTQTAEFKGTFEEATAEAYRYADLLAKEAGKYTVDVADKGYTLNIKFAGKEKTPEE |  |  | 44 | 1.42 | 
D3(N45A, N60Q)1 (designed binder) PKEEVTIKANLIYADGKTQTAEFKGTFEEATAEAYRYADLLAKEAGKYTVDVADKGYTLQIKFAGKEKTPEE |  |  | 59 | 1.9 | 
D3(Q19E)1 (designed binder) PKEEVTIKANLIYADGKTETAEFKGTFEEATAEAYRYADLLAKENGKYTVDVADKGYTLNIKFAGKEKTPEE |  |  | 31 |  | Sample/ref. ratio [8]: 1.11
D3(N10Q, N45A, N60Q)1 (designed binder) PKEEVTIKAQLIYADGKTQTAEFKGTFEEATAEAYRYADLLAKEAGKYTVDVADKGYTLQIKFAGKEKTPEE |  |  | 59 | 1.9 | 
D3(N10Q, N45A)1 (designed binder) PKEEVTIKAQLIYADGKTQTAEFKGTFEEATAEAYRYADLLAKEAGKYTVDVADKGYTLNIKFAGKEKTPEE |  |  | 48 | 1.55 | 
D3(Q19A)1 (designed binder) PKEEVTIKANLIYADGKTATAEFKGTFEEATAEAYRYADLLAKENGKYTVDVADKGYTLNIKFAGKEKTPEE |  |  | 28 |  | Sample/ref. ratio [8]: 1
Domain 4 (D4) (protein) AQVPKEEVTIKANLIYADGKTQTAEFKGTFAEATAEAYRYADLLAKENGKYTADLEDGGYTINIRFAGKKVDEKPEEC |  |  | 26 | 0.84 | 
Domain 3 (D3) (protein) AQVPKEEVTIKANLIYADGKTQTAEFKGTFEEATAEAYRYADLLAKENGKYTVDVADKGYTLNIKFAGKEKTPEEC |  |  | 31 | 1 | Sample/ref. ratio [8]: 1; Retained capacity after 96 cycles (%) [9]: 28%
Domain 2 (D2) (protein) AQVPKEEVTIKANLIYADGKTQTAEFKGTFEEAAAEAYRYADALKKDNGEYTVDVADKGYTLNIKFAGKEKTPEEC |  |  | 22 | 0.71 | 
D3(N10Q, N45A, N60Q)2 (designed binder) PKEEVTIKAQLIYADGKTQTAEFKGTFEEATAEAYRYADLLAKEAGKYTVDVADKGYTLQIKFAGKEKTPEEPKEEVTIKAQLIYADGKTQTAEFKGTFEEATAEAYRYADLLAKEAGKYTVDVADKGYTLQIKFAGKEKTPEE | 2.56 | 59 |  |  | QB10 Dab (dynamic binding capacity at 10% breakthrough) [10]: 15.4 mg/mL; QB10 Fab (dynamic binding capacity at 10% breakthrough) [11]: 19.3 mg/mL
D3(N10Q, N45A, N60Q)6-cys (designed binder) PKEEVTIKAQLIYADGKTQTAEFKGTFEEATAEAYRYADLLAKEAGKYTVDVADKGYTLQIKFAGKEKTPEEPKEEVTIKAQLIYADGKTQTAEFKGTFEEATAEAYRYADLLAKEAGKYTVDVADKGYTLQIKFAGKEKTPEEPKEEVTIKAQLIYADGKTQTAEFKGTFEEATAEAYRYADLLAKEAGKYTVDVADKGYTLQIKFAGKEKTPEEPKEEVTIKAQLIYADGKTQTAEFKGTFEEATAEAYRYADLLAKEAGKYTVDVADKGYTLQIKFAGKEKTPEEPKEEVTIKAQLIYADGKTQTAEFKGTFEEATAEAYRYADLLAKEAGKYTVDVADKGYTLQIKFAGKEKTPEEPKEEVTIKAQLIYADGKTQTAEFKGTFEEATAEAYRYADLLAKEAGKYTVDVADKGYTLQIKFAGKEKTPEEC | 2.43 | 56 |  |  | 
D3(N10Q, N45A, N60Q)2-cys (designed binder) PKEEVTIKAQLIYADGKTQTAEFKGTFEEATAEAYRYADLLAKEAGKYTVDVADKGYTLQIKFAGKEKTPEEPKEEVTIKAQLIYADGKTQTAEFKGTFEEATAEAYRYADLLAKEAGKYTVDVADKGYTLQIKFAGKEKTPEEC | 2.56 | 59 |  |  | 
Domain 1 (D1) (protein) AQVSEEEVTIKANLIFANGSTQTAEFKGTFEKATSEAYAYADTLKKDNGEYTVDVADKGYTLNIKFAGKEKTPEEC |  |  | 13 | 0.42 | 
D3(N10Q, N45A, N60Q)6 (designed binder) PKEEVTIKAQLIYADGKTQTAEFKGTFEEATAEAYRYADLLAKEAGKYTVDVADKGYTLQIKFAGKEKTPEEPKEEVTIKAQLIYADGKTQTAEFKGTFEEATAEAYRYADLLAKEAGKYTVDVADKGYTLQIKFAGKEKTPEEPKEEVTIKAQLIYADGKTQTAEFKGTFEEATAEAYRYADLLAKEAGKYTVDVADKGYTLQIKFAGKEKTPEEPKEEVTIKAQLIYADGKTQTAEFKGTFEEATAEAYRYADLLAKEAGKYTVDVADKGYTLQIKFAGKEKTPEEPKEEVTIKAQLIYADGKTQTAEFKGTFEEATAEAYRYADLLAKEAGKYTVDVADKGYTLQIKFAGKEKTPEEPKEEVTIKAQLIYADGKTQTAEFKGTFEEATAEAYRYADLLAKEAGKYTVDVADKGYTLQIKFAGKEKTPEE | 2.52 | 58 |  |  | QB10 Dab (dynamic binding capacity at 10% breakthrough) [12]: 16.7 mg/mL; QB10 Fab (dynamic binding capacity at 10% breakthrough) [13]: 21.1 mg/mL

— patent publication US20170320919A1
